From patent US20110008841A1

How the values were obtained:
[1] = biological target: huIL-17RA-FLAG-polyHis (human) (UniProt Q96F46); assay: Luminex binning; huIgG on bead 72 as capture, 2nd mAb B [D00012 FIG. 16B]
[2] = biological target: huIL-17RA-FLAG-polyHis (human) (UniProt Q96F46); assay: Luminex binning; huIgG on bead 72 as capture, 2nd mAb M [D00012 FIG. 16B]
[3] = biological target: huIL-17RA-FLAG-polyHis (human) (UniProt Q96F46); assay: Luminex binning; huIgG on bead 72 as capture, 2nd mAb N [D00012 FIG. 16B]
[4] = biological target: huIL-17RA-FLAG-polyHis (human) (UniProt Q96F46); assay: Luminex binning; huIgG on bead 72 as capture, 2nd mAb Q [D00012 FIG. 16B]
[5] = biological target: huIL-17RA-FLAG-polyHis (human) (UniProt Q96F46); assay: Luminex binning; huIgG on bead 72 as capture, 2nd mAb K [D00012 FIG. 16B]
[6] = biological target: huIL-17RA-FLAG-polyHis (human) (UniProt Q96F46); assay: Luminex binning; huIgG on bead 72 as capture, 2nd mAb R [D00012 FIG. 16B]
[7] = biological target: huIL-17RA-FLAG-polyHis (human) (UniProt Q96F46); assay: Luminex binning; huIgG on bead 72 as capture, 2nd mAb O [D00012 FIG. 16B]
[8] = biological target: huIL-17RA-FLAG-polyHis (human) (UniProt Q96F46); assay: Luminex binning; huIgG on bead 72 as capture, 2nd mAb F [D00012 FIG. 16B]
[9] = biological target: huIL-17RA-FLAG-polyHis (human) (UniProt Q96F46); assay: Luminex binning; huIgG on bead 72 as capture, 2nd mAb E [D00012 FIG. 16B]
[10] = biological target: huIL-17RA-FLAG-polyHis (human) (UniProt Q96F46); assay: Luminex binning; huIgG on bead 72 as capture, 2nd mAb C [D00012 FIG. 16B]
[11] = biological target: huIL-17RA-FLAG-polyHis (human) (UniProt Q96F46); assay: Luminex binning; huIgG on bead 72 as capture, 2nd mAb I [D00012 FIG. 16B]
[12] = biological target: huIL-17RA-FLAG-polyHis (human) (UniProt Q96F46); assay: Luminex binning; huIgG on bead 72 as capture, 2nd mAb L [D00012 FIG. 16B]
[13] = biological target: huIL-17RA-FLAG-polyHis (human) (UniProt Q96F46); assay: Luminex binning; huIgG on bead 72 as capture, 2nd mAb J [D00012 FIG. 16B]
[14] = biological target: huIL-17RA-FLAG-polyHis (human) (UniProt Q96F46); assay: Luminex binning; huIgG on bead 72 as capture, 2nd mAb D [D00012 FIG. 16B]
[15] = biological target: huIL-17RA-FLAG-polyHis (human) (UniProt Q96F46); assay: Luminex binning; huIgG on bead 72 as capture, 2nd mAb A [D00012 FIG. 16B]

- normalized MFI [1]: 37
- normalized MFI [2]: 32
- normalized MFI [3]: 56
- normalized MFI [4]: 28
- normalized MFI [5]: 100
- normalized MFI [6]: 50
- normalized MFI [7]: 95
- normalized MFI [8]: 140
- normalized MFI [9]: 26
- normalized MFI [10]: 54
- normalized MFI [11]: 22
- normalized MFI [12]: 34
- normalized MFI [13]: 35
- normalized MFI [14]: 123
- normalized MFI [15]: 84
Substance: huIgG (antibody)
